{"source": "patent US20260062488A1", "about": "(AbbVie / Abbott, published 2026)", "binders": {"B1": {"name": "Ab-h1.9d-WT (antibody, human IgG1, kappa)", "heavy": "not shown", "light": "DIQMTQSPSSLSASVGDRVTITCHASQDISDNIGWLQQKPGKSFKLLIYHGTNLEDGVPSRFSGSGSGTDYTLTISSLQPEDFATYYCVQYAQFPWTFGGGTKVEIKRTVAAPSVFIFPPSDEQLKSGTASVVCLLNNFYPREAKVQWKVDNALQSGNSQESVTEQDSKDSTYSLSSTLTLSKADYEKHKVYACEVTHQGLSSPVTKSFNRGEC", "notes": "IgG1/kappa with D356E and L358M (EU); also called Anti-human α4β7 (AC-166667) hu IgG1/k WT mAb"}}, "key": {"cynomolgus α4β7 integrin [1]": {"molecular_target": "T1, cynomolgus α4β7 integrin (cynomolgus monkey)", "T1 construct": "whole, on cells; On CHOK1-cα4β7 cells or cynomolgus blood lymphocytes; also called cα4β7; cyno α4β7", "assay": "binding to cyno CD4+ Tm cells"}, "cynomolgus α4β7 integrin [2]": {"molecular_target": "T1, cynomolgus α4β7 integrin", "assay": "FACS, cynomolgus lymphocytes"}, "cynomolgus α4β7 integrin [3]": {"molecular_target": "T1, cynomolgus α4β7 integrin", "assay": "binding, cynomolgus lymphocytes, summary table"}, "cynomolgus α4β7 integrin [4]": {"molecular_target": "T1, cynomolgus α4β7 integrin", "assay": "binding, cynomolgus CD8+ memory T cells, summary table"}, "cynomolgus α4β7 integrin [5]": {"molecular_target": "T1, cynomolgus α4β7 integrin", "assay": "FACS, cyno CD8+ total"}, "[6]": {"molecular_target": "T2, human FcγRIIIa (F176) on CHO-K1 cells (human, UniProt P08637 17-254)", "T2 construct": "whole, on cells; also called F158", "T2 sequence (P08637 17-254)": "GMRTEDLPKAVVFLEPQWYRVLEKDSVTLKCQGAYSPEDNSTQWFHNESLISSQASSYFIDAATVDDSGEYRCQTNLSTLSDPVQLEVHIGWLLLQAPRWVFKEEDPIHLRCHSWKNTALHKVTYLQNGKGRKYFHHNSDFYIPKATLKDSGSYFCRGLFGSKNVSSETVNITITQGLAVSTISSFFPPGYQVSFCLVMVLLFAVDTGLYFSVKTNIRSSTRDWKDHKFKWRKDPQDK", "assay": "flow cytometry on CHO-K1 cells expressing the receptor (curve FcgRIIIA F176), monomeric antibody, F(ab')2 anti-human IgG AF647; N=1"}, "cynomolgus α4β7 integrin [7]": {"molecular_target": "T1, cynomolgus α4β7 integrin", "assay": "binding, cynomolgus CD4+ memory T cells, summary table"}, "cynomolgus α4β7 integrin [8]": {"molecular_target": "T1, cynomolgus α4β7 integrin", "assay": "FACS, cyno CD4+ naïve"}, "FcgRIIIB NA2": {"molecular_target": "T3, FcgRIIIB NA2 (human, UniProt O75015)", "T3 construct": "cell surface, on engineered CHO-K1 cells; the list of molecules has only an FcγRIIIb on CHO-K1 cells without the allotype; also called human FcγRIIIb (NA2) on CHO-K1 cells", "T3 sequence (O75015 17-200 N65S limits assumed)": "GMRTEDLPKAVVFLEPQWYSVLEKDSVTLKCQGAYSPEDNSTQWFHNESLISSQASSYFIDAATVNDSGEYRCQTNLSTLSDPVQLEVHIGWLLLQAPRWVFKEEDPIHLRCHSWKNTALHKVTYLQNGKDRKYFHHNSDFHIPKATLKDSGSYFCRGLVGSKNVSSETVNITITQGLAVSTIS", "assay": "flow cytometry on CHO-K1 cells expressing the receptor (curve FcgRIIIB NA2), monomeric antibody, F(ab')2 anti-human IgG AF647; N=1"}, "cynomolgus α4β7 integrin [9]": {"molecular_target": "T1, cynomolgus α4β7 integrin", "assay": "FACS, cyno CD8+ total", "remark": "listed apart in the source"}, "[10]": {"molecular_target": "T4, human FcγRIIc on CHO-K1 cells (human, UniProt P31995 43-323)", "T4 construct": "whole, on cells", "T4 sequence (looked up)": "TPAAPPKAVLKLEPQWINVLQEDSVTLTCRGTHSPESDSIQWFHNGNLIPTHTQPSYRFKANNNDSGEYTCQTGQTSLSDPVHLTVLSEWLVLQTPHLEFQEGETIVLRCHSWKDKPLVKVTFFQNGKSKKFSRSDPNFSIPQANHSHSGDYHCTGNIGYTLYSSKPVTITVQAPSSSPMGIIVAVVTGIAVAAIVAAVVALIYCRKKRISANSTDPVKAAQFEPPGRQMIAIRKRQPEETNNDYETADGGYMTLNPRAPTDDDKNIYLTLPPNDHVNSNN", "assay": "flow cytometry on CHO-K1 cells expressing the receptor (curve FcgRIIC), monomeric antibody, F(ab')2 anti-human IgG AF647; N=1"}, "FcgRIIA H131": {"molecular_target": "T5, FcgRIIA H131 (human, UniProt P12318)", "T5 construct": "cell surface, on engineered CHO-K1 cells; the list of molecules has only an FcγRIIa on CHO-K1 cells without the variant; also called human FcγRIIa (H131) on CHO-K1 cells", "T5 sequence (receptor chain, looked up)": "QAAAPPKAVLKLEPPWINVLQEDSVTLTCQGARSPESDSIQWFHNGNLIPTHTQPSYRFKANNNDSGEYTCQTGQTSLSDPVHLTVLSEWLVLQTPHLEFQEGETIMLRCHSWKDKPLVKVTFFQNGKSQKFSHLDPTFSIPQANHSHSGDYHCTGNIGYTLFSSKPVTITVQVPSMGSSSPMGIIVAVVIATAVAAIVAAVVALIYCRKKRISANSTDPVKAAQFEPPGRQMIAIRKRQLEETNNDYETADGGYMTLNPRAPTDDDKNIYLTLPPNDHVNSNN", "assay": "flow cytometry on CHO-K1 cells expressing the receptor (curve FcgRIIA H131), monomeric antibody, F(ab')2 anti-human IgG AF647; N=1"}, "[11]": {"molecular_target": "T6, cynomolgus FcγRIII extracellular domain protein (cynomolgus monkey, UniProt Q8SPW2 17-208)", "T6 construct": "extracellular domain; also called Cyno FcγRIII", "T6 sequence (Q8SPW2 17-208)": "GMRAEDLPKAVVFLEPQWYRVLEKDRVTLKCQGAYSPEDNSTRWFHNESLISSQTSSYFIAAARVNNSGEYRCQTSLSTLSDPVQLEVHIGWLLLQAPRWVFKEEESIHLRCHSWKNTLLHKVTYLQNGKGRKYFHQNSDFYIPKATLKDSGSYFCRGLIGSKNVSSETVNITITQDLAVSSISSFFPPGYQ", "assay": "SPR (Biacore T200), FcγR captured, antibody injected"}, "[12]": {"molecular_target": "T7, cynomolgus FcγRI extracellular domain protein (cynomolgus monkey)", "T7 construct": "extracellular domain; also called Cyno FcγRI", "assay": "SPR (Biacore T200), FcγR captured, antibody injected"}, "cynomolgus α4β7 integrin [13]": {"molecular_target": "T1, cynomolgus α4β7 integrin", "assay": "FACS, cyno CD4+ memory"}, "human α4β1 integrin": {"molecular_target": "T8, human α4β1 integrin (human, UniProt P05556 21-798)", "T8 construct": "whole, on cells; also called hα4β1", "assay": "FACS on recombinant cells expressing human α4β1; N=1"}, "[14]": {"molecular_target": "T9, human FcγRIIIa (V176) on CHO-K1 cells (human, UniProt P08637 17-254)", "T9 construct": "whole, on cells; also called V158", "T9 sequence (P08637 17-254 F176V limits assumed)": "as the sequence (P08637 17-254) above, with F160V counted along it", "assay": "flow cytometry on CHO-K1 cells expressing the receptor (curve FcgRIIIA V176), monomeric antibody, F(ab')2 anti-human IgG AF647; N=1"}, "cynomolgus α4β7 integrin [15]": {"molecular_target": "T1, cynomolgus α4β7 integrin", "assay": "FACS, cyno CD4+ total"}, "human FcRn ECD protein": {"molecular_target": "T10, human FcRn ECD protein (human, UniProt P55899 24-297; P61769 21-119)", "T10 construct": "extracellular domain", "T10 sequence (P55899 24-297 limits assumed, chain 1 of 2)": "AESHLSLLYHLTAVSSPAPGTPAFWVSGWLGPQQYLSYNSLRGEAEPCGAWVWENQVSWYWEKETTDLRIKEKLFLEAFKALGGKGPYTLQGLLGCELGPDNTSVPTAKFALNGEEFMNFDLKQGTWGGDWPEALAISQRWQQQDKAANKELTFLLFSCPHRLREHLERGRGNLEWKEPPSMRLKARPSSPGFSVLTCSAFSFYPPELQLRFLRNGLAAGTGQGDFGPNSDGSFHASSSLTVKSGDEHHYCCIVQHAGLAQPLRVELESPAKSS", "T10 sequence (P61769 21-119 limits assumed, chain 2 of 2)": "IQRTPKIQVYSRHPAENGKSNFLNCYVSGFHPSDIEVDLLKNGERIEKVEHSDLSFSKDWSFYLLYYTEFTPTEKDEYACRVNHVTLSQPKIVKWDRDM", "assay": "SPR (Biacore), antibody immobilised, FcRn injected, pH 6.0, steady state; pH 6.0"}, "[16]": {"molecular_target": "T11, cynomolgus FcRn ECD protein (cynomolgus monkey, UniProt Q8SPV9 24-297; Q8SPW0 21-119)", "T11 construct": "extracellular domain", "T11 sequence (Q8SPV9 24-297 limits assumed, chain 1 of 2)": "as the sequence (P55899 24-297 limits assumed, chain 1 of 2) above, with N39D, E44Q, G99S, S189G, S190N, L217M, S269T counted along it", "T11 sequence (Q8SPW0 21-119 limits assumed, chain 2 of 2)": "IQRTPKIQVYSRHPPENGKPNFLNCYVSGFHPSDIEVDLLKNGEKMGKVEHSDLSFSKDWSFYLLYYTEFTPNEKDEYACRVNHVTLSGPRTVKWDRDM", "assay": "SPR (Biacore), antibody immobilised, FcRn injected, pH 6.0, steady state; pH 6.0"}, "[17]": {"molecular_target": "T12, human FcγRI on CHO-K1 cells (human, UniProt P12314 16-374)", "T12 construct": "whole, on cells", "T12 sequence (P12314 16-374)": "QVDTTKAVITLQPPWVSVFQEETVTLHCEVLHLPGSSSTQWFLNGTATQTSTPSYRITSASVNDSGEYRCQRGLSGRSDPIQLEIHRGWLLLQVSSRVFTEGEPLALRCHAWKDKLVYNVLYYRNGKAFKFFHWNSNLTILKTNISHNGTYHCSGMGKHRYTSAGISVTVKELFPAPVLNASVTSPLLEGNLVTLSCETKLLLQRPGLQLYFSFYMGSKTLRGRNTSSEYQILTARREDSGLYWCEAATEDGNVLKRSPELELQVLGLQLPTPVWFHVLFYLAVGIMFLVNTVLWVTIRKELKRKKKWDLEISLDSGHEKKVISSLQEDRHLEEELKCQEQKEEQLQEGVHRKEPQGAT", "assay": "flow cytometry on CHO-K1 cells expressing the receptor (curve FcgRI), monomeric antibody, F(ab')2 anti-human IgG AF647; N=1"}, "FcgRIIIB NA1": {"molecular_target": "T13, FcgRIIIB NA1 (human, UniProt O75015)", "T13 construct": "cell surface, on engineered CHO-K1 cells; the list of molecules has only an FcγRIIIb on CHO-K1 cells without the allotype; also called human FcγRIIIb (NA1) on CHO-K1 cells", "T13 sequence (O75015 other isoform, or with tags, fused parts or gaps limits assumed)": "as the sequence (O75015 17-200 N65S limits assumed) above, with S20R, S49N, N66D, I90V counted along it", "assay": "flow cytometry on CHO-K1 cells expressing the receptor (curve FcgRIIIB NA1), monomeric antibody, F(ab')2 anti-human IgG AF647; N=1"}}, "data": [{"binder": "B1", "values": [{"measurement": "EC50", "setting": "cynomolgus α4β7 integrin [1]", "value": 0.01, "unit": "nM"}, {"measurement": "EC50", "setting": "cynomolgus α4β7 integrin [2]", "value": 0.062, "unit": "nM"}, {"measurement": "EC50", "setting": "cynomolgus α4β7 integrin [3]", "value": 0.062, "unit": "nM"}, {"measurement": "EC50", "setting": "cynomolgus α4β7 integrin [4]", "value": 0.036, "unit": "nM"}, {"measurement": "EC50", "setting": "cynomolgus α4β7 integrin [5]", "value": 0.035, "unit": "nM"}, {"measurement": "binding result", "setting": "[6]", "value": "binds"}, {"measurement": "EC50", "setting": "cynomolgus α4β7 integrin [7]", "value": 0.01, "unit": "nM"}, {"measurement": "EC50", "setting": "cynomolgus α4β7 integrin [8]", "value": 0.045, "unit": "nM"}, {"measurement": "binding result", "setting": "FcgRIIIB NA2", "value": "binds"}, {"measurement": "EC50", "setting": "cynomolgus α4β7 integrin [9]", "value": 0.035, "unit": "nM"}, {"measurement": "binding result", "setting": "[10]", "value": "binds"}, {"measurement": "binding result", "setting": "FcgRIIA H131", "value": "binds"}, {"measurement": "Kd", "setting": "[11]", "value": 280, "unit": "nM"}, {"measurement": "Kd", "setting": "[12]", "value": 12, "unit": "nM"}, {"measurement": "EC50", "setting": "cynomolgus α4β7 integrin [13]", "value": 0.01, "unit": "nM"}, {"measurement": "binding result", "setting": "human α4β1 integrin", "value": "no binding (tested: about 70 (axis without unit))"}, {"measurement": "binding result", "setting": "[14]", "value": "binds"}, {"measurement": "EC50", "setting": "cynomolgus α4β7 integrin [15]", "value": 0.03, "unit": "nM"}, {"measurement": "Kd", "setting": "human FcRn ECD protein", "value": 3300, "unit": "nM"}, {"measurement": "Kd", "setting": "[16]", "value": 2200, "unit": "nM"}, {"measurement": "binding result", "setting": "[17]", "value": "binds"}, {"measurement": "binding result", "setting": "FcgRIIIB NA1", "value": "binds"}]}]}
